Reference: publication PMC7139201 (Developmental cell, 2020)

Target: T1, Vps4^E233Q-3xHA (ATP hydrolysis deficient substrate trap mutant) (S. japonicus, UniProt B6K5C2 1-436, E233Q)
T1 sequence (looked up): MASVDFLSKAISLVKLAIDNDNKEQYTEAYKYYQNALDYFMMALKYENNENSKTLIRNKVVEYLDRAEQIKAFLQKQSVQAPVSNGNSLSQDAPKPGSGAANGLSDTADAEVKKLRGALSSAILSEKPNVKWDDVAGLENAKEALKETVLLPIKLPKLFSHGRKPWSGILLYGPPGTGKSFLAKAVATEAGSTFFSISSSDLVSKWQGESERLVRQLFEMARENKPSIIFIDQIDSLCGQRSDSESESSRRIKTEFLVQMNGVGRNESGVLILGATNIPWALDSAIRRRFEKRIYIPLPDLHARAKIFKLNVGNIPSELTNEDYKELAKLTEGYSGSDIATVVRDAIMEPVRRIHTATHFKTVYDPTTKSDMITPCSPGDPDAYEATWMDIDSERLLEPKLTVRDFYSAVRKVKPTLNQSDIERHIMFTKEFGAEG
Assay: pull-down

B1: GST-Did4 (natural protein, S. japonicus, UniProt B6K6Y8 1-208, looked up)
chain: MGMFDWIFGKQRSPAEVMRAHQRQLNRAERELDREQLKLDQREKGLIREIKANAKAGNVGAARVQARDLMRLRNSRKRMQNTKTQLQAIGLRLTTVRSSDQMMSSMRSATTLLTRMNRSANLPALTRITQQFERENDMMEQRQDMIDEQFEEGLEDEDEEEADELVDQVLDEIGVSLSQDLPSAAQANTTKADTISSGLNLEDLAHIR
- binding result: binds
